# Laboratory results: patent US20230331840A1 (published 2023)
# Tests used:
# [1] = biological target: T1, Human CD22 extracellular segment conjugated His label (human, UniProt P20273 20-687); assay: ELISA
# [2] = biological target: T1, Human CD22 extracellular segment …; assay: BLI (Fortebio)
# [3] = biological target: K562-CD22 (UniProt P20273 20-847); assay: FACS binding
binder,measurement,setting,value
"CD22 antibody FC2-203 (antibody, V domains shown) VH: QVQLQQPGAELVRPGASVKLSCKASGYTFSSYWINWVKQRPGQGLEWIGNIYPSDSYTNYNQKFKDKATLTVDKSSSTAYMQLSSPTSEDSAVYYCTREGHYYGSFGAMDYWGQGTSVTVSS VL: DVQITQSPSYLAASPGETITINCRASKTISKYLAWYQEKPGKTNKLLIYSGSTLQSGIPSRFSGSGSGTDFTLTISSLEPEDFAMYYCQQHNEYPWTFGGGTKLEIKR",EC50,[1],0.457 nM
same,Kd,[2],7.08 nM
"RFB-4 (antibody, V domains shown) VH: EVQLVESGGGLVKPGGSLKLSCAASGFAFSIYDMSWVRQTPEKRLEWVAYISSGGGTTYYPDTVKGRFTISRDNAKNTLYLQMSSLKSEDTAMYYCARHSGYGSSYGVLFAYWGQGTLVTVSA VL: DIQMTQTTSSLSASLGDRVTISCRASQDISNYLNWYQQKPDGTVKLLIYYTSILHSGVPSRFSGSGSGTDYSLTISNLEQEDFATYFCQQGNTLPWTFGGGTKLEIK",EC50,[3],0.632 nM
"CD22 antibody FC2-117 (antibody, V domains shown) VH: DVQLQESGPGLVKPSQSLSLTCSVTGYSITSGYYWNWIRQFPGNKLEWMGYISYDGSNNYNPSLKNRISITRDTSKNQFFLKLNSVTTEDTATYYCTKGGYGYYFDYWGQGTTLTVSS VL: DIQMTQSPASLSASVGETVTITCRASGNIHNYLAWYQQKQGKSPQLLVYNAKTLADGVPSRFSGSGSGTQYSLKINSLQPEDFGSYYCQHFWSTPPTFGGGTKLEIKR",EC50,[1],0.629 nM
same,Kd,[2],2.73 nM
"CD22 antibody FC2-201 (antibody, V domains shown) VH: KVQLQQSGAGLVKPGASVKLSCKASGYTFTDSILHWLMQRSGQGLEWIGWFYPGSGSIKYNEKFKDKATLTADKSSSTVYMELSRLTSEDSAFYFCARHEDGYDGFAYWGQGTLVTVSA VL: ENVLTQSPAIMSASLGEKVTMSCRASSSVNYIFWYQQKSDASPKLWIYYTSNLAPGVPARFSGSGSGNSYSLTISSMEGEDAATYYCQQFTSSPFTFGSGTKLEIKR",EC50,[1],0.096 nM
same,Kd,[2],0.0722 nM
"CD22 antibody FC2-153 (antibody, V domains shown) VH: QVQLQQSGAELMKPGASVKISCKATGYTFSSYWIEWVKQRPGHGLEWIGEILPGSGSTNYNEKFKGKATFTADTSSNTAYMQLSSLTSEDSAVYYCARWGQLGLFYAMDYWGQGTSVTVSS VL: DIQMTQSPASLSASVGETVTITCRASENIYSYLAWYQQKQGKSPQLLVYNAKTLAEGVPSRFSGSGSGTQFSLKINSLQPEDFGSYYCQHHYGSPLTFGAGTKLELKR",EC50,[1],0.145 nM
same,Kd,[2],0.92 nM
"CD22 antibody FC2-070 (antibody, V domains shown) VH: QVQLQQPGAELVKPGTSVKLSCKASGYNFTSYWINWVKLRPGQGLEWIGDIYPGSGNTNYNEKFKSKATLTVDTSSTTAYMQLSSLASEDSALYYCARRGYLDYWGQGTTLTVSS VL: DIQMTQSPASLSASVGETVTITCRASGNIHNYLAWYQQKQGKSPQLLVYNAKTLADGVPSRFSGSGSGTQYSLTINSLQPEDFGSYYCQHFWSTPLTFGAGTKLELKR",EC50,[1],0.154 nM
same,Kd,[2],0.569 nM
